Data reported in article PMC10448054.

Biological target: N-protein of the wild-type Cne PRP8 S0 split mini-intein with C1A, maltose-binding protein fused to N-intein (MI^A N) (Cryptococcus neoformans)
Assay: SPR; Biacore T100; N-proteins (WTNa, ENa) immobilised on a CM5 chip; C-terminal fusion proteins flowed at different concentrations in 10 mM HEPES, 150 mM NaCl, 1 mM EDTA, pH 7.4; KD = kd/ka

In the case of “C-protein of the wild-type Cne PRP8 S0 split mini-intein with N185A, C-intein fused to thioredoxin (I^A CT) (domain or fragment)”, the Ka is reported as 608000 M⁻¹, the Kd is reported as 1650 nM and the koff is reported as 0.0082 s⁻¹. It also gave a kon of 4990 M⁻¹ s⁻¹.
